Results on 1 protein are retold here after paper PMC5428420, “The trimer interface in the quaternary structure of the bifunctional prokaryotic FAD synthetase from Corynebacterium ammoniagenes” (Scientific Reports, 2017).

The data set concerns the molecule itself. The data set can be described thus: SEC; oligomeric fractions, 15-20 µM protein, incubated 10 min at room temperature in buffer only (20 mM PIPES, 0.8 mM MgCl2, pH 7.0), then passed again through Superdex 200 10/300 GL.

B1: FAD synthetase from Corynebacterium ammoniagenes, wild type (enzyme)
chain: MDIWYGTAAVPKDLDNSAVTIGVFDGVHRGHQKLINATVEKAREVGAKAIMVTFDPHPVSVFLPRRAPLGITTLAERFALAESFGIDGVLVIDFTRELSGTSPEKYVEFLLEDTLHASHVVVGANFTFGENAAGTADSLRQICQSRLTVDVIDLLDDEGVRISSTTVREFLSEGDVARANWALGRHFYVTGPVVRGAGRGGKELGFPTANQYFHDTVALPADGVYAGWLTILPTEAPVSGNMEPEVAYAAAISVGTNPTFGDEQRSVESFVLDRDADLYGHDVKVEFVDHVRAMEKFDSVEQLLEVMAKDVQKTRTLLAQDVQAHKMAPETYFLQAES
notes: Bifunctional FAD synthetase (N-terminal FMNAT module, C-terminal RFK module) from Corynebacterium ammoniagenes, CaFADS; Plasmid pET28a-CaFADS; The size of the oligomers was not resolved by gel filtration; also called CaFADS; WT CaFADS; source: E. coli BL21(DE3), purified (20% ammonium sulfate fractionation, phenyl-sepharose, DEAE-cellulose)
Consider B1, for which the monomer/oligomer ratio was approximately 0.8.
